From patent publication EP1758924B1 (Council of Scientific and Industrial Research, dated 2005)

Biological target: T1, Hsp16.3 (16 kDa alpha-crystallin like heat-shock protein of Mycobacterium tuberculosis), recombinant, 6 X His … (Mycobacterium tuberculosis)
T1 construct: also called M. tuberculosis Acr (Hsp16.3) protein
Experiment: reverse phage ELISA on coated Hsp16.3, anti-M13-HRP, A405

B1: phage clone displaying peptide sequence Seq ID 21 (Tyr-Pro-His-His-Phe-Lys-His-Arg-His-Ile-Pro-Ile), from the Ph.D.-12 library on bacteriophage M13 (peptide)
peptide: YPHHFKHRHIPI
notes: Tested as whole phage in the reverse phage ELISA; not shown: fused to an M13 coat protein (spacer Gly-Gly-Gly-Ser is named)
fold binding over BSA background: ~3 fold
